Measured values published in a protein production outcome set (Wang et al. 2014).

Test: label from the status in PepcDB records
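Also: failed if final PepcDB status was selected cloned or expressed and not failed if soluble or beyond.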

Sequence | protein production
MDVKTAAALHRLRLISLPEAISFPILLVCSVLKRTTEFDAVFPMGLIHGLLFTFYVIFWADAWNRAKWSKKKAAGYFLLAIPPFGGLFAERKLKREAEDAVIASRARREGTVNA | failed
RPHVVKVYSEDGACRSVEVAAGATARHVCEMLVQRAHALSDETWGLVECHPHLALERGLEDHESVVEVQAAWPVGGDSRFVFRKNFA | not failed
MKLIKVILSSISQVVLINNPYTGLFILIGLFAVNWKVGISAMIASVMTWILAPYMNYTKEEIESGLAGFNPVLTAIALTLFLDSNWSGILITFVATILTLPIGAAVREVLKPHKIAFLTSPYVIMTWITLLIPNQLKTLHTQIDIIPEHIEKVSLNNDHTRVHFFQSVLDGFGQIFLMPSIIGGLLILIGIFIGSKKAGIVSIIANIIGFLIIILLGGDYSSINEGIFGYNVVLSAIALGVTFETAIHSYLAMILGIVLTAFIHLGLSTLLAPLGLPTLTWPFIFATWIMLFAGIKNQSV | failed
MSDALSAIPAAVHRNLSDKLYEKRKNAALELENIVKNLTSSGDHDKISKVIEMLIKEFAKSPQANHRKGGLIGLAAVTVGLSTEAAQYLEQIVPPVINSFSDQDSRVRYYACEALYNIAKVVRGDFIIFFNKIFDALCKLSADSDANVQSAAHLLDRLVKDIVTESDQFSIEEFIPLLKERMNVLNPYVRQFLVGWITVLDSVPDIDMLGFLPDFLDGLFNMLSDSSHEIRQQADSALSEFLQEIKNSPSVDYGRMAEILVQRAASPDEFTRLTAITWINEFVKLGGDQLVRYYADILGAILPCISDKEEKIRVVARETNEELRSIHVEPSDGFDVGAILSVARRQLSSEFEATRIEALNWISTLLNKHRTEVLCFLNDIFDTLLKALSDSSDDVVLLVLEVHAGVAKDPQHFRQLIVFLVHNFRADNSLLERRGALIVRRMCVLLDAERVYRELSTILEGEDNLDFASTMVQALNLILLTSPELSKLRELLKGSLVNREGKELFVALYTSWCHSPMAIISLCLLAQAYQHASVVIQSLVEEDINVKFLVQLDKLIRLLETPIFTYLRLQLLEPGRYTWLLKTLYGLLMLLPQQSAAFKILRTRLKTVPTYSFSTGNQIGRATSGVPFSQYKHQNEDGDLEDDNINSSHQGINFAVRLQQFENVQNLHRGQARTRVNYSYHSSSSSTSKEVRRSEEQQQQQQQQQQQQQQQQRPPPSSTSSSVADNNRPPSRTSRKGPGQLQL | not failed
MQQLSFLPGEMTPGERSLILRALQTLDRHXHEPGVAFTSTRAAREWLILNMAGLEREEFRVLYLNNQNQLIAGETXFTGTINRTEVHPREVIKRALYHNAAAVVLAHNHPSGEVTPSKADRLITERLVQALGLVDIRVPDHLIVGGNQVFSFAEHGLL | failed
MKKTLVIVVHPDLTKSVINKAWAKAIEGAATIHHLYEQYPNGQIDLAHEQALLEAHDRIVFQFPLYWYAAPYLLKKWMDEVFTEGWAYGAGGDKMEGKEICAAVSCGSPKSAFAEGAQQCHTLRSYLNVFDGIAAFLRARFTGYHACYDSYNPRLPEMLPANCEAYLRFIKGE | failed
MTGIWEENTGKQSGDHSTPLRWRCFKHEKNRPPSLVPGQQSGIILACFRRGPPPRCLVKRLPYPGSALVLRRYIMSTSPVTLMVARRVADGRYQDLIAWLREGEQLATDFPGYLGSGVLAPPPNDDEFQIIFRFADESTLHTWEHSASRTAWLARGSDLFAHPSEHRVSGIDGWFGAAGHRPPRWKQAVAIWLAFFPVSLLFNFVLGPLLGDLSLLPRVFVSTLALTPLMVYFFIPLSTRLLANWLNSTPARPLPATPSTQNP | failed
TEALRMEREALLAEMGVAVREDGGTVGVFSPKKTPHLVNLNEDPLMSECLLYHIKDGVTRVGQVDMDIKLTGQFIREQHCLFRSIPQPDGEVVVTLEPCEGAETYVNGKLVTEPLVLKSGNRIVMGKNHVFRFNHPEQARLE | failed
MFTNSGVFIMYKILEKKEIAMRNTWYKIYAPHVAKKVQPGQFVIVRAFPNGERIPLTPIMWDREEGWIVLVAFTKGKTTMKMAMELKEGDEILNVAGPLGNPAPMEKFGKILAIGAYVGIAEVYPIAKAWQEIGNDVTTLHVTFEPMVILKDYFEKAVSRHIVEPVKIDQEKSFQENTKNVTKALTAKVKELLDNENWDLVFMVGPPGDQKAVFEVVKKYGIPMKVDLHPIMVDGTGMCGACRVTVGGEVKFACVDGPEFDAYLVDWDELIHRVGFYSKLEKLALEKYMEELKAKGVI | failed
MKEQSYGKFAKFLHWVMALMIIVLIAVGTYMAGLDKADPNKMLLVGMHKSFGVIFMQFAILRVIWSRLNNSPKLPDVLASWEKLLSKTITGSLYLLMLAIPFSGYAMTNLFGYPVSLFGLIDLPVLFGKNTEMALLAKQAHFLLVYTLMAALFAHITGALKHRFLDKPEADVLPRMMPIKPRI | failed
LKMLRDMTGLPHNRKCFDCDQRGPTYVNMTVGSFVCTSCSGSLRGLNPPHRVKSISMTTFTQQEIEFLQKHGNEVCKQIWLGLFDDRSSAIPDFRDPQKVKEFLQEKYEKKRWYVPPEQAK | not failed
MPNTPWSATSQNLGQDFHNWSGGLRFRPSRLDVPEDEETVAALVRAAARQGRSIRPVGSAHSSSEIYVTDDILVSMAGICGLREHDAQHHRATVGAGSQLTELSKELQAAGMTLSNFGDVATQTVGGAIGTGTHGSGRDFPNLSMMLVGGRLVTAGGEIRTFDVEEEPDFVRALRVSFGTLGILTWTTLKLEPLHDLHRQEWCLAFEPCMEVLDKLSRENRNFDFYWYPRSDEVKIRCLNPPGEEKDYGAFARLAKDETGPPHEVIPQHSDLPHRFEEMEYSMPAEAGPECLGKLRARIKERWRRSVGWRLLFRYIKADDSWLSEAYGRDSVSISLHQNATLPYWDFFLDLEPIMRDHGGRPHWAKKHSLRAAELRPLYPMWDRFLALRQEMDPGGRFLTRYLRGLLGC | failed
MRGLAVLVLLVFAVQVAAAEDFRPVVFVHGLAGSAGQFESQGMRFAANGYPAEYVKTFEYDTISWALVVETDMLFSGLGSEFGLNISQIIDPETLDKILSKSRERLIDETFSRLDRVIDEALAESGADKVDLVGHSMGTFFLVRYVNSSPERAAKVAHLILLDGVWGVDAPEGIPTLAVFGNPKALPALGLPEEKVVYNATNVYFNNMTHVQLCTSPETFAVMFEFINGYKPATTDIVPQDGDYVKVKGKFLAFATNGDVSGWLSIYPIDENGKRLTRLPVKFMRVKGDFEVRLRKGQLYEFQFRKDFSPIIYHYYRAPFVRDDLWARFLVSKPPLDVELLILPERLSPAAKETSGLLLIRYKEMIGEYDEEIGGVDEVYVNGVNVCTERICPIERAVNGLWVFDRGADGKSDLDREVVRYSIMPFMSAADLVVPAEGTISIAVKSRTGGEESFTIPAWSADRHSIIVQFSDYI | failed
MSVSPVQPDPSVIGGVPKAPFVLKPNLARLFNDRASRFEALAQGSHLAPYLNFLAGITRIQSELVSALPPPEPVPADRVERARANAMPPIDRAAMGGSPDCREVLQQFFEKAEALEKPAAAAEALAQVRTADEEMLTWMIGNVMADDLPVESLAHHLYVAAAMQIQAARLAAGLDGSRLVPIRVGVCPACGGRPVASMVIGFHGAEGARYASCSCCATMWNEVRVKCLACGSTKGIGYQAVETGDEEATVKAEVCDTCNSWMKILYQNKNPSLDVVADDVASLGLDLLMKDTEYKRAGFDPFLMGY | not failed
MEYLIYSLIAVIILTVGLNNIFKKQSKYFYMLATLISVVVTSYEIFKIWTGFKLEGIIFVLERSFMKGFVSTALFILVMFAGALSKKWGITKKLLRVRAEMAILASILILPHFIIYTYKFLVRLFSGKPLSILYISFIIVGLIAFIIMIPLFITSFKKVRVTMSPSKWKMVQRWAYPFYFLVYVHIILILFNKKVFNLNAVIIYTVIFLGYFILRICNNKKAIK | failed
MPRYKTVEQVLSLMKDRTRVRNIGIIAHVDHGKTTTSDTLLAASGIISPKVAGEALALDYLNVEQQRGITVKAANISLYHEAEGKGYVINLIDTPGHVDFSGRVTRSLRVLDGSIVVVDAVEGIMTQTETVLRQSLEERVRPILFINKVDRLVKELKLSPQEMLNRLLDIIRQVNNLIDMYGEPEFKEKWMINPQAGNVIFGSAKDKWGFSLPMAQKKGINMKNVIDAYTASDKSKLEELAAQAPINEALLDAAIKFVPNPIEAQKYRIPKIWKGDLDNELAKAMLNADPNGPIVFMITDMKVDPHAGLVATGRVFSGTLRSGEELWLVNAKTSQRILQVSLYMGPTRELAEEIPAGNIAAVLGLDRARSGETAISVGFSNVQGSFERLHYISEPVVTIAVEPKNPKDLTKMIDALRKLSIEDPNLVVKINEETGEYLLSGMGFLHLEVSLQLLRENYGIDVVTTPPIVVYRESIRAKSQVFEGKSPNKHNKFYLSVEPLNDKTIELISNGTIREDMDSKEMAKILRDEASWDYDEAKRIIAIDENVNVFVDLTSGVQHLREVMDTVLQGFRLAMKEGPLAHEPIRGVKVILHDAVIHEDPAHRGPAQIYPAVRNSIFAGFLTSRPTLLEPIQKLDIRVPADLIGNVTAVITRKRGKILDVSQIANMSRITAEIPVSESYDMASELRGSTGGRAFWGTEFSRWAPVPDSILLDVVTKIRERKGLPKELPKVEDFLS | failed
MELVDRYIAAVQRELPEDKRQEIGRELKANICDQLDALAEHAELTESQIADVLQQMGHPAQVAQQFVPPTPIVASEDISLFKHTLVMVLGVLFVLQVVSGATQWLGSTEGSLFGFIRHIASGFIVDACFAFTAILLSFWSISAQGKVMFGGRCQHWQPQNLPNVGPDWQHISLSDVFSDLATYLFLLLLIWNNLWMSADQLAARSVIFSANAQQLLQWFSPVILLSLLNTLWQLLRRLWTAPLLLANAGVNLAYALCLVFLAFSSPLLQYQGGEVEGIFTLQQLDTWLGHALLVTALFPGYECIRDMLRWRKLTAH | failed
MVHQSEMENYNIGQASIEEVSDPAYKGAKIVVIGVGGGGSNMIKHLVEYGVHQDVTPIATNTDGQHLKNNPAPVKILLGKESTGGLGAGGIPDIGRKAAEESANEIKEAIKDAKLVIISTGLGGGTGTGATPTIVKIAKEVGALTIAIVTKPFKYEGNQKRKRAEEGLKELEQSSDSILVIPNDKILLTMKKNASTTECYREVDDVLVRAVSGISTIITKPGNINVDFADLKSALGFKGFALMGIGEATGEESAKLAVQNAIQSPLLDDASIEGAKSIIVFFEHHPDYPMMAYSQACDFIQDQAHQDVDVKFGQHTSDNIPIDHVRVTIIATGAERNSGGASLESIATPSQPVVKQTRKVGNGEYLKIPTEEELSIPTTMRIQQD | failed
MPNQPVTVESFMPVEGKLREKVIVKGSNFGTDKSKVKVYFVDEAAERLSTVIGIDNNTLYCLAPRQLPGGNRIKVIVDGKEVTTDGTFKYEQAQNVSTISGSASKDGNDDGDLASAKFKYMWGIAAVGNNTVLAYQRDDPRVRLISVDDNKVTTVHPGFKGGKPAVTKDKQRVYSIGWEGTHTVYVYMKASGWAPTRIGQLGSTFSGKIGAVALDETEEWLYFVDSNKNFGRFNVKTQEVTLIKQLELSGSLGTNPGPYLIYYFVDSNFYMSDQNLSSVYKITPDGECEWFCGSATQKTVQDGLREEALFAQPNGMTVDEDGNFYIVDGFKGYCLRKLDILDGYVSTVAGQVDVASQIDGTPLEATFNYPYDICYDGEGGYWIAEAWGKAIRKYAVELEHHHHHH | not failed
MYVTIVYASVKTDKTEAFKEATRMNHEQSIREPGNMRFDILQSADDPTRFVLYEAYKTRKDAAAHKETAHYLTWRDTVADWMAEPRKGVIYGGLYPTGDD | not failed
MVADESITVTVEVKNTGVVAGAEVVQLYLHDKKASVSRPIKELKGFAKVYLAPGESKRVSISLNKRDLSFWDVHTNDWLAEVGEFEVLLGTSLDNIRQKATFTYQNKYEQLEHHHHHH | failed
